# Assay: yeast display, Sf9 membrane polyspecificity reagent, FACS + sequencing; frameworks hold sequencing errors
# How it was run: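 Sorting gates, low and high (top ~1%), were placed on anti-HA fluorescence to track expression and on streptavidin fluorescence to track reagent binding. A clone's polyreactivity label is taken from the gate it came out of. The reagent was 10% biotinylated, detergent-solubilized Sf9 membrane, applied for 1 hour at 4 °C to galactose-induced yeast display cells.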
row,Sequence,polyreactivity (PSR sort gate)
1,QVQLVESGGGLVQAGGSLRLSCAASGSTFVPNTMGWYRQAPGKERELVADITYSGGSTYYADSVKGRFTISRDNAKNTVYLQMNSLKPEDTAVYYCAAEGTTWYYDMDYWGQGTQVTVSS,low polyreactivity
2,QVQLVESGGGLVQAGGSLRLSCAASGFTFPWYTMGWYRQAPGKERELVAAINSRGGSTYYADSVKGRFTISRDNAKNTVYLQMNSLKPEDTAVYYCATRSFGRMDYWGQGTQVTVSS,high polyreactivity
3,QVQLVESGGGLVQAGGSLRLSCAASGIILNYYAMGWYRQAPGKERELVAAISSGGTTYYADSVKGRFTISRDNAKNTVYLQMNSLKPEDTAVYYCNADYLYSRGGDWRWWDMDYWGQGTQVTVSS,low polyreactivity
4,QVQLVESGGGLVQAGGSLRLSCAASGSIFWFNAMGWYRQAPGKERELVAAITITGGSTYYADSVKGRFTISRDNAKNTVYLQMNSLKPEDTAVYYCAAGTGSRDDYWGQGTQVTVSS,high polyreactivity
5,QVQLVESGGGLVQAGGSLRLICAASGFTFSYYAMGWYRQAPGKESELVAGITTGGGTNYADSVKGRFTISRDNAKNTVYLQMNCLKPEDTAVYYCNAVGSHWVSYSSPVRFDFWGQGTQVTVSS,low polyreactivity
6,QVQLVESGGGLVQAGGSLRLRCAASGRTFWKNAMGWYRQEPRKECELVAAISWGGGSTYYADSVKGRFTISRDNAKNTVYLQMNSLKPEDTAVYYCNVYYRRVLLGFYYWGQGTQVTVSS,low polyreactivity
7,QVQLVESGGGLVQAGGSIRLTCAASGGTFGRNAMGWYRQAPGKERELVATITRRGGSTYYADSVKGRFTISRDNAKTSVYLQMNSLKAEDTAVYYCAARDVYRGGLFDYWGQGTQVTVSS,high polyreactivity
8,QVQIVESGGVLVQAGGSLRLSCAASGSITYFNAMGWYRQAPGKERELVAAISYSGGSTYYADSVKGRFTISRDNAKNTVYLQMNSLKPEDTAVYYCAADRLIGWRKTYYYWGQGTQVTVSS,high polyreactivity
9,QVHLVESGGGLLQAGGSLRLSCAASGTIYGVYAMGWYRQAPEKEGELVAAISWTDGTTYYADSVKGRFTISRDNAKNTVYLQINSLKPEDTAVYYCAAEADVPPYLFGYWGQGTQVTVSS,high polyreactivity
10,QVQLVESGGGLVQAGGSLRLSCAASGITFDSYALGSYRQAPGKERELVAAISGSGGSTYYADSVKGRFTISRDNAKNTVYLQMNSLKPEDTAVYYCAADWYPTGFYYWGQGTQVTVSS,low polyreactivity
11,QVQHVESGGGLVQAGGSLRLSCAASGSNVVSNAMGWYRHATGKEREFVATISSGGGTTYADSVKGRFTISRDNAKITVYLQMNSLKAEDTAVYYCAAGHFVGREWVKFDYWGQGTQVTVSS,low polyreactivity
12,QVQLVESGGGLVQAGGSLSLSCAASGSIFVRYAMGWSRHAPWKERELVAAISVRGGRTYYAYSVKGRFTISRDNAKNTVYLQMNRLKPEATAVYYCAAQLYYYYSYVPPGGYWGQGTQVTVSA,high polyreactivity
13,QVQLVESGGGLVQAGGSLRLSCAASGRTLKYNAMGWYRQAPGKERELVAAISYSGSSTYYADSVKWRFTISRDNAKNTVYLQMNSLKPEDNAVYYCNSARPTAAYDYWGQGTQVTVSS,low polyreactivity
14,QVQLVESAGGLLQAGGTLRLICAASGRIFTNYAMGWYRQAPGKERELVAAINWSGSRTFYADSVMGRFTISRDNAKYTVYLQLNSLKPEDTAVYSCAADALRKPKIALYDYWGQGTQVTVSS,high polyreactivity
15,QVQLVESGGGLVQAGGSLRLSCAASGIIFAWYAMGWYRQAPGKERELVAAISYSGGTTYYADSVKGRFTISRDIAKNTVYLQMNSLKPEDTEVYYCAGRLHLFFSYDYWGQGTLVTVSS,low polyreactivity
16,QVQLVESGGGLVQAGGSLRLSCAASGFTFQYYVMGWYRQAPGKERELVAAISWSGGSTYYADSVKGRFSISRDNAKNTVYLQMNSLKPEDTAVYYCAAEYDEFLVRFGVWYWFDYWGQGTQVTVSS,high polyreactivity
17,QVQLVESGGGLVQAGGSLRLSCAASGRTFLVNAMGRYREAPGKVREFVAAITSRSGRTNYADSVKGRFTISRDNAKNTLYLQMNRLQPEDTAVYYCNAEGYTVKYWYSRYDYWGQGTQVTVSS,high polyreactivity
18,QVQLVESGGGLVQAGGSLRLSCAASGSIFSRNAMGWYRQAPGKEREFVARISWSSTSTNYADSVKGRFTISRDNAKNTVYLQMNSLKPEDTAVYYCAADFRGDRRFDYWGQGTQVSVSS,low polyreactivity
19,QVQLVESGGGLVQAGGSLRLSCAASGLIFRYYAMGWYRQAPGKERELVAAIRRGGSTYYADSVKGRFTISRDNAKNTVYLQMNSLKPEDTAVYYCAADSYYWRYEYDYWGQGTQVTVSS,high polyreactivity
20,QVQLVESGGGLVQAGGSLRLSCAASGFTFADNAMGGYREAPGKERQFVASITYSTGSTYADSVKGRFTISRDNAKNTVYLQMHSLTPEDTAVYYCAVDNISNWAVENDYWGQGTQVTVSS,low polyreactivity
21,QVQLVESGGGLVQAGGSLRLSCAASGSTFKSYAMGWYRQAPGKERELVAAITHRGSTYYADSVKGRFTISRDNAKNTVYLQMNSLKPEDTAVYYCAASLRAPSLGHYYYWGQGTQVTVSS,high polyreactivity

row,Sequence,polyreactivity (PSR sort gate)
1,QVQVVESGGGLVQAGGSLRLSCAASGFIFNTHAMGWYRQAPGKERELVAAITWTGDSTYYADSVKGRFTISRDYAKNTVYLQMNSLKPEDTAVYYCNAATGDWETSIWTYPFWAEMYYWGQGTQVNVSS,low polyreactivity
2,QVQLVESGGGLVQAGGSLRLSCAASGSIFYGYAMGWYRQAPGKERELVAAISGNGGSTYYADSVKGRFTISRDNAKNTVYLQMNRLKPEDTAVYYCAVEVYHYGFEYDYWGLGTQVTVSS,high polyreactivity
3,QVQLVESGGGLVQAGGSLRLSCAASGRIFQTYAMGWYRQAPGKERDLVASITSGVDTYYADSVKGRFTISRDNAKNTVYLQMNSLKPEDNAVYYCAAEPYRTVTAYRYSLYWYNYWGQGTQVTVSS,high polyreactivity
4,QVQLVESGGGLVQAGGSLRLSCAASGSTFDRNVMGWYRQAPGKERELVAAISRVSSTNYADSVKGRFTISRDNAKNTVYLQMNSLKPEDTAVYYCAVDRAGSIMNYWGQGTQVTVSS,low polyreactivity
5,QVQLVESGGGLVQAGGSLRLSCAASGNIFVYNAMGWYRQAPGKEREFVAAIDSGGSTYYADSVKGRFTISRDNAKNTVYLQMNSLKPEDTAVYYCARAVVQSRGPPRYKTPYDYWGQGTQVTVSS,low polyreactivity
6,QVQLVESGGGLVQAGGSLRLSCAASGRTFPGYAMGWYRQAPGKARELVAGISYRGGSTYYADSVKGRFTISRDNAKNTVYLQLNSLKPEDTAVYYCARDYSRHKGDYWGQGTQVTVSS,low polyreactivity
7,QVQLVESGGGLVQAGGILRLSCAASGNIFPLYAMGWYRQAPGKERELVAAITWSTTSTYYADSVKGRFTISRDNAKNTVYLQMNSLKPEDTAVYYCAAGAYRRNKSDYYYWGQGTQVTVSS,low polyreactivity
8,QVQLVESGGGLVQAGGSLRLSCASSGSTFGINAMGGYREAPGKERELVAAITFISGSTNYADSVKGRFTISRDKAKNTVNLQMNCLKPEDTAVYYCAADSVYYAGYDVDYWGQGTQVTVSS,low polyreactivity
9,QVQLVESGGGLVQAGGSLRLSCAASGRSNAMGWYRQAPGKERELVAAISTNGGSTYYADSVKGRFTISRDNAKNTVYLQMNSLKPEDTAVYYCAKRLGRDYTFGYWGQGTQVTVSS,high polyreactivity
10,QGQLVESCGGLVQAGGSLRLSCAASGRTFYYYAMGWYRQAPRKERELVAAMTSGGRTNSADSVKGRFTSSRDKATNTDSLQMNSLKPEDTAVYYCAKPPYSQYEFDYWGQGTQVTVSS,high polyreactivity
11,QVQLVESGGGLVQAGGSLRLSCAASGFIFYSYAMGWYRQAPGKERELVAAISGSGGSTYYADSVKGRFTISRDNAKNTVYLQMNSLKPEDTAVYYCAAALTFRMDYWGQGTQVTVSS,high polyreactivity
12,QVQLVESGGGIVQAGGSLRLSCAASGFTFAVNAMGWYRQAPGKERELVAGISRRGGNTYYADSVKGRFTISRDNAKNTVYLQMNSLKPEDTAVYYCARYSYSYWGQGTQVTVSS,high polyreactivity
13,QVQLVESGGGLVQAGGSLRLSCAASGRIFKNNAMGWYRQAPGKERELVAVISGSGGSTYADSVKGRFTISRDNAKNTVYLQLNSLKPADTAVYYCAASRYYRIWYSLLQGYDYWGQGTQVTVSS,high polyreactivity
14,QVQLVESGGGLVQAGGSLRLSCAASGITLKKYAMVWYRQAPGKERELVAAISIRGTSTYYADSVKGRFTISRDNAKNSVFLQMNSLKPEDTAVYYFAALYVVGDVRSGYWGQCTQVTVSS,high polyreactivity
15,QVQIVESGGGLVQAGGSLRLSFAASGSTFVLYAMGWYRPAPGKERELVAAISGGATTTYADSVKGRFTISRDNAKNSVYLQMNSLKPEDTAVYYCAADFYTFVVSGAAMDYWGQGTQVTVSS,low polyreactivity
16,QVQLVESGGGLVQAGGSLRLSCAASGSTFNQNAMGWYRQATGKERELVAAITVDGSSTYYADSVKGRFTISRDNAKNTVYLQMNSLKPEDTAVYYCAAGYSARSSGYTGGYDYWGQGTQVTVSS,high polyreactivity
17,QVQLVESGGGLVQAGGSIRLSCAASGRILYGNAMGWYRQAPGKEREFVAAITFRGGSTYYADSVKGRFTISRDNAKNTVYLQMNSLKPEDTAVYYCNARGHCGWGTSMYYWGQGTQVTVSS,high polyreactivity
18,QVQLVESGGGLVQAGGSLRLSCAASGSIVGYAMGWYRQAPGKERELVAAISSGGSTNYADSVKGRFTISRDNAKNTVYLQMNSLKPEDTAVYYCAKSWRWRANLRGYYWGQGTQVTVSS,high polyreactivity
19,QVQLVETGGGLVQAGGSLRLRCAASGSIFGGYAMGWYRQAPGKERELVAAISSGGSTYYADSVKGRFTISRDNAKNTVYLQMNSLKPEDTAVYYCATSTYAYRRNSYYYTRPRFGYWGQGTQVTVSS,high polyreactivity
20,HVQLVESGVGLVQAAGSLRLSCAASGLIFRWYAMGWYRQAPVKERELFAAISRGGSTNYADSVKGRFTISRDNAKNTVYLQMNSLKPEDTAVYYCATVYSVRYGGRYYYAFGLYDYWGQGTQVTVSS,high polyreactivity

# — the nanobody polyreactivity screen of Harvey et al. (2022)
